Experiments:
Format in all cases: cell-based
Conditions in all cases: mutant expressed transiently in tobacco cells, immunostaining of nuclei, at least 30 nuclei per transfection
H3K4me3 = assay: H3K4 demethylation assay in tobacco cells of JMJ703 substitution mutants, H3K4me3
Description: (§1) The cDNA fragment of the J3NCZ region was amplified using primers FAJ3NCZ-F and FAJ3NCZ-R and then cloned into pFA121 vector modified from pBI121 (GenBank: AF485783.1), in which GUS was replaced by 2×FLAG∶2×HA tag. The pFA121-J3NCZ plasmid was transferred into Agrobacterium tumefaciens strain EHA105 cells for tobacco infection with the help of Agrobacterium cells harboring P19 plasmids. For in vivo histone demethylation assay, tobacco infection and nuclei isolation were performed as previously described. The immunostaining protocol was modified from http://sites.bio.indiana.edu/~pikaardlab. Briefly, the nucleus solution was placed on a poly-lysine coated slide, air dried, and then refixed with 4% formaldehyde in KPBS (1.28 M NaCl, 20 mM KCl, 80 mM Na2HPO4, 20 mM KH2PO4, pH7.2) containing 1% Triton X-100 for 20 min. After 3 washes with KPBS-1% Triton, slides were blocked with blocking solution (1% BSA in KPBS-1% Triton) and incubated at 37°C for 30 min. The blocking solution was washed off with KPBS-1% Triton and the slides were incubated with both anti-HA and histone méthylation specific antibodies diluted in blocking solution to 1∶300 at 4°C overnight. After washing with KPBS, slides were blocked and incubated with fluorescent-labeled antibodies at 37°C for 2 h. After washing with KPBS thrice, nuclei were stained with 5 µg/mL 4,6-diamidino-2-phenylindole (DAPI), coated with a drop of VECTASHIELD Mounting Medium (H-1000, Vector Laboratories), and then covered with a coverslip followed by confocal microscope (Leica) detection. In vitro histone demethylation assays were performed as previously described. FA-J3NCZ was purified after overexpression with Anti-FLAG M2 magnetic beads according the manufacturer's instruction (Sigma).
(§2) Supplementary file pgen.1003239.s006.tif: Figure S6 Demethylation assays for JMJ703 substitution mutants that have been produced based on the structural data. The mutant names are labeled at the top left corner of each panel. Image panels from left to right are staining by DAPI, anti-HA and anti-methylated histones, respectively. Bar = 10 µm. At least 30 nuclei that expressed JMJ703 per transfection were observed and imaged. (TIF) Click here for additional data file.

H3K4me1 = assay: H3K4 demethylation assay in tobacco cells of JMJ703 substitution mutants, H3K4me1
Description: as §1, §2

H3K4me2 = assay: H3K4 demethylation assay in tobacco cells of JMJ703 substitution mutants, H3K4me2
Description: as §1, §2

B1: H394A: JMJ703 substitution mutant, Fe-binding residue (protein, UniProt Q53WJ1 1-1238, looked up, variant H394A)
Lysine-specific demethylase …: MMGVTTTLNEDTEPSIPPGFGPFATLPLWGIHNDAKPAVTHSTPVQALQSIRKDSEECQPSAAVSRSDTPCSTSGTQTCRKSLRNRPPIDYSRFEHISDEDSDVEIVEKDVSSTRRRQQLPKGVLRGCAECSDCQKVIAKWNPAGARRPVLDEAPVFYPTEEEFEDTLKYIESIRPMAEPYGICRIVPPSSWKPPCLLKDKSIWEGSKFSTRVQKVDKLQNRKSSKKGRRGGMMKRRKLAESEENSATAHTQTGMQQSPERFGFEPGPEFTLQTFQKYADDFSKQYFRKDTSMDSVPSVEDIEGEYWRIVEVPTEEIEVIYGADLETGTFGSGFPKLSPETKSDAEDKYAQSGWNLNNLPRLQGSVLSFEGGDISGVLVPWVYVGMCFSSFCWAVEDHHLYSLNYMHWGAPKLWYGVPGKDAVNLESAMRKHLPELFEEQPDLLHNLVTQFSPSLLKSEGVHVYRCVQHEGEFVLTFPRAYHAGFNCGFNCAEAVNVAPIDWLPIGHNAVELYREQARKITISHDKLLLGAAREAIRAQWDILFLKRNTADNMRWKSICGADSTIFKALKARIETELVQRKTLGVPAQSRKMDAEFDSIDRECALCYYDLHLSASGCPCCPEKYACLVHAKQLCSCDWDKRFFLFRYDVNELNILADALGGKLSAIHRWGVSDLGLSLSSCVKREKVQDSKTVRRLTDGPRRSYMSQASAVSLVSSSTSNEQKDEGNKIMKIASPQTNNVCPSVEQRKSENISPLKEPCVRNELSCTTNSDSNGLQYNGGLGGHKGSAPGLPVSSSPSFSSNVATRPISTSSVSMKIVQGLVASKSCIQASSRTGDSRSLLGEHHNRSPAMIHDGTNMKSSLESSNNSCRLIASDYNATPCHSSKDQVLVTPGTNASVVTLKDSSQVHSASSQQFVRTGPWTQSASHEASSPSTSALKPSLDPPAMKNLYGGFTQGSAHPGPPSFSNQQPNDGRLQRTSESLPGVEARARGHPTVTAQPALEIHSRNGGAQKGPRIANVVHRFKCSVEPLEIGVVLSGRLWSSSQAIFPKGFRSRVKYFSIVDPIQMAYYISEILDAGMQGPLFMVKLENCPGEVFINLSPTKCWNMVRERLNMEIRRQLNMGKSNLPTLQPPGSVDGLEMFGLLSPPIVQAIWARDRDHICTEYWRSRPHVLIEDPNNRHMLSQGPPLLALRGLIQRANRDELQVLRSLMTNSNNLDDSSRQQAAHIIEEEIAKQLC
no: H3K4me3 demethylation activity (H3K4me3) | H3K4me1 demethylation activity (H3K4me1) | H3K4me2 demethylation activity (H3K4me2)

B2: L447A: JMJ703 substitution mutant, residue conserved in H3K4 demethylases (protein, UniProt Q53WJ1 1-1238, looked up, variant L447A)
Lysine-specific demethylase …: MMGVTTTLNEDTEPSIPPGFGPFATLPLWGIHNDAKPAVTHSTPVQALQSIRKDSEECQPSAAVSRSDTPCSTSGTQTCRKSLRNRPPIDYSRFEHISDEDSDVEIVEKDVSSTRRRQQLPKGVLRGCAECSDCQKVIAKWNPAGARRPVLDEAPVFYPTEEEFEDTLKYIESIRPMAEPYGICRIVPPSSWKPPCLLKDKSIWEGSKFSTRVQKVDKLQNRKSSKKGRRGGMMKRRKLAESEENSATAHTQTGMQQSPERFGFEPGPEFTLQTFQKYADDFSKQYFRKDTSMDSVPSVEDIEGEYWRIVEVPTEEIEVIYGADLETGTFGSGFPKLSPETKSDAEDKYAQSGWNLNNLPRLQGSVLSFEGGDISGVLVPWVYVGMCFSSFCWHVEDHHLYSLNYMHWGAPKLWYGVPGKDAVNLESAMRKHLPELFEEQPDLLHNAVTQFSPSLLKSEGVHVYRCVQHEGEFVLTFPRAYHAGFNCGFNCAEAVNVAPIDWLPIGHNAVELYREQARKITISHDKLLLGAAREAIRAQWDILFLKRNTADNMRWKSICGADSTIFKALKARIETELVQRKTLGVPAQSRKMDAEFDSIDRECALCYYDLHLSASGCPCCPEKYACLVHAKQLCSCDWDKRFFLFRYDVNELNILADALGGKLSAIHRWGVSDLGLSLSSCVKREKVQDSKTVRRLTDGPRRSYMSQASAVSLVSSSTSNEQKDEGNKIMKIASPQTNNVCPSVEQRKSENISPLKEPCVRNELSCTTNSDSNGLQYNGGLGGHKGSAPGLPVSSSPSFSSNVATRPISTSSVSMKIVQGLVASKSCIQASSRTGDSRSLLGEHHNRSPAMIHDGTNMKSSLESSNNSCRLIASDYNATPCHSSKDQVLVTPGTNASVVTLKDSSQVHSASSQQFVRTGPWTQSASHEASSPSTSALKPSLDPPAMKNLYGGFTQGSAHPGPPSFSNQQPNDGRLQRTSESLPGVEARARGHPTVTAQPALEIHSRNGGAQKGPRIANVVHRFKCSVEPLEIGVVLSGRLWSSSQAIFPKGFRSRVKYFSIVDPIQMAYYISEILDAGMQGPLFMVKLENCPGEVFINLSPTKCWNMVRERLNMEIRRQLNMGKSNLPTLQPPGSVDGLEMFGLLSPPIVQAIWARDRDHICTEYWRSRPHVLIEDPNNRHMLSQGPPLLALRGLIQRANRDELQVLRSLMTNSNNLDDSSRQQAAHIIEEEIAKQLC
no: H3K4me3 demethylation activity (H3K4me3) | H3K4me1 demethylation activity (H3K4me1) | H3K4me2 demethylation activity (H3K4me2)

B3: W381A: JMJ703 substitution mutant, residue conserved in H3K4 demethylases (protein, UniProt Q53WJ1 1-1238, looked up, variant W381A)
Lysine-specific demethylase …: MMGVTTTLNEDTEPSIPPGFGPFATLPLWGIHNDAKPAVTHSTPVQALQSIRKDSEECQPSAAVSRSDTPCSTSGTQTCRKSLRNRPPIDYSRFEHISDEDSDVEIVEKDVSSTRRRQQLPKGVLRGCAECSDCQKVIAKWNPAGARRPVLDEAPVFYPTEEEFEDTLKYIESIRPMAEPYGICRIVPPSSWKPPCLLKDKSIWEGSKFSTRVQKVDKLQNRKSSKKGRRGGMMKRRKLAESEENSATAHTQTGMQQSPERFGFEPGPEFTLQTFQKYADDFSKQYFRKDTSMDSVPSVEDIEGEYWRIVEVPTEEIEVIYGADLETGTFGSGFPKLSPETKSDAEDKYAQSGWNLNNLPRLQGSVLSFEGGDISGVLVPAVYVGMCFSSFCWHVEDHHLYSLNYMHWGAPKLWYGVPGKDAVNLESAMRKHLPELFEEQPDLLHNLVTQFSPSLLKSEGVHVYRCVQHEGEFVLTFPRAYHAGFNCGFNCAEAVNVAPIDWLPIGHNAVELYREQARKITISHDKLLLGAAREAIRAQWDILFLKRNTADNMRWKSICGADSTIFKALKARIETELVQRKTLGVPAQSRKMDAEFDSIDRECALCYYDLHLSASGCPCCPEKYACLVHAKQLCSCDWDKRFFLFRYDVNELNILADALGGKLSAIHRWGVSDLGLSLSSCVKREKVQDSKTVRRLTDGPRRSYMSQASAVSLVSSSTSNEQKDEGNKIMKIASPQTNNVCPSVEQRKSENISPLKEPCVRNELSCTTNSDSNGLQYNGGLGGHKGSAPGLPVSSSPSFSSNVATRPISTSSVSMKIVQGLVASKSCIQASSRTGDSRSLLGEHHNRSPAMIHDGTNMKSSLESSNNSCRLIASDYNATPCHSSKDQVLVTPGTNASVVTLKDSSQVHSASSQQFVRTGPWTQSASHEASSPSTSALKPSLDPPAMKNLYGGFTQGSAHPGPPSFSNQQPNDGRLQRTSESLPGVEARARGHPTVTAQPALEIHSRNGGAQKGPRIANVVHRFKCSVEPLEIGVVLSGRLWSSSQAIFPKGFRSRVKYFSIVDPIQMAYYISEILDAGMQGPLFMVKLENCPGEVFINLSPTKCWNMVRERLNMEIRRQLNMGKSNLPTLQPPGSVDGLEMFGLLSPPIVQAIWARDRDHICTEYWRSRPHVLIEDPNNRHMLSQGPPLLALRGLIQRANRDELQVLRSLMTNSNNLDDSSRQQAAHIIEEEIAKQLC
no: H3K4me3 demethylation activity (H3K4me3) | H3K4me1 demethylation activity (H3K4me1) | H3K4me2 demethylation activity (H3K4me2)

B4: H482Y: JMJ703 substitution mutant, Fe-binding residue (protein, UniProt Q53WJ1 1-1238, looked up, variant H482Y)
Lysine-specific demethylase …: MMGVTTTLNEDTEPSIPPGFGPFATLPLWGIHNDAKPAVTHSTPVQALQSIRKDSEECQPSAAVSRSDTPCSTSGTQTCRKSLRNRPPIDYSRFEHISDEDSDVEIVEKDVSSTRRRQQLPKGVLRGCAECSDCQKVIAKWNPAGARRPVLDEAPVFYPTEEEFEDTLKYIESIRPMAEPYGICRIVPPSSWKPPCLLKDKSIWEGSKFSTRVQKVDKLQNRKSSKKGRRGGMMKRRKLAESEENSATAHTQTGMQQSPERFGFEPGPEFTLQTFQKYADDFSKQYFRKDTSMDSVPSVEDIEGEYWRIVEVPTEEIEVIYGADLETGTFGSGFPKLSPETKSDAEDKYAQSGWNLNNLPRLQGSVLSFEGGDISGVLVPWVYVGMCFSSFCWHVEDHHLYSLNYMHWGAPKLWYGVPGKDAVNLESAMRKHLPELFEEQPDLLHNLVTQFSPSLLKSEGVHVYRCVQHEGEFVLTFPRAYYAGFNCGFNCAEAVNVAPIDWLPIGHNAVELYREQARKITISHDKLLLGAAREAIRAQWDILFLKRNTADNMRWKSICGADSTIFKALKARIETELVQRKTLGVPAQSRKMDAEFDSIDRECALCYYDLHLSASGCPCCPEKYACLVHAKQLCSCDWDKRFFLFRYDVNELNILADALGGKLSAIHRWGVSDLGLSLSSCVKREKVQDSKTVRRLTDGPRRSYMSQASAVSLVSSSTSNEQKDEGNKIMKIASPQTNNVCPSVEQRKSENISPLKEPCVRNELSCTTNSDSNGLQYNGGLGGHKGSAPGLPVSSSPSFSSNVATRPISTSSVSMKIVQGLVASKSCIQASSRTGDSRSLLGEHHNRSPAMIHDGTNMKSSLESSNNSCRLIASDYNATPCHSSKDQVLVTPGTNASVVTLKDSSQVHSASSQQFVRTGPWTQSASHEASSPSTSALKPSLDPPAMKNLYGGFTQGSAHPGPPSFSNQQPNDGRLQRTSESLPGVEARARGHPTVTAQPALEIHSRNGGAQKGPRIANVVHRFKCSVEPLEIGVVLSGRLWSSSQAIFPKGFRSRVKYFSIVDPIQMAYYISEILDAGMQGPLFMVKLENCPGEVFINLSPTKCWNMVRERLNMEIRRQLNMGKSNLPTLQPPGSVDGLEMFGLLSPPIVQAIWARDRDHICTEYWRSRPHVLIEDPNNRHMLSQGPPLLALRGLIQRANRDELQVLRSLMTNSNNLDDSSRQQAAHIIEEEIAKQLC
no: H3K4me3 demethylation activity (H3K4me3) | H3K4me1 demethylation activity (H3K4me1) | H3K4me2 demethylation activity (H3K4me2)

— PMC3554631, “Structural Basis of a Histone H3 Lysine 4 Demethylase Required for Stem Elongation in Rice” (PLoS Genetics, 2013)
